Consider 12 proteins from the PETadex activity labels (doi:10.1038/s41467-025-61599-z).

Sequences and labels used below:
B1: unnamed (protein)
chain: MNFPRASRLMQAAVLGGLMAVSAAATAQTNPYARGPNPTAASLEASAGPFTVRSFTVSRPSGYGAGTVYYPTNAGGTVGAIAIVPGYTARQSSINWWGPRLASHGFVVITIDTNSTLDQPSSRSSQQMAALRQVASLNGTSSSPIYGKVDTARMGVMGWSMGGGGSLISAANNPSLKAAAPQAPWNSSTNFSSVTVPTLIFACENDSIAPVNSHALPFYNSMSRNAKQFLEINGGSHSCANSGNSNQALIGKKGVAWMKRFMDNDTRYSTFACQNPNSTRVSDFRTANCS
B2: unnamed (protein)
chain: MQDNSDGRYRPEGRTFARGAANLFDDRLFEARTYVTGTDVAEFASATIFYPLTLSFDLPNGVVVMSPGYTGTPESYDWWGPMLASVGIITAIIETNTPEDNLEQRKNALIAGIELIKRENANSASPINNKVDESQIAIMGHSLGGGASLRAAEELEGDIKAVIPLTPYCCELGQSFEGDLKGVSTPTLIIAAADDTIAPPETHSRLLYDEINSSTNKVYLEFAEGAHGLPTNQGSEFQTQGTYVYAFLKANFTNDSKYSDFIGGDGEDSFSSYETN
B3: unnamed (protein)
chain: MTAAAVSSRYYEETGPHAVTVEQGGPDHTLYYPSDLGAGGTQHPVVIWGNGTGATPETYDEGLRHFASWGFVVAAANTTQAGSGKEMLAGARFLIEEDQRSGSVFYGKIDETRIGAAGHSQGGGGAIAAGADPIVDTTIPIQPGPQGTVGDLHGPAFFISGQFDWIVPSSYVYSRYLGADHVPAVFGELRGADHFFPGDTRLRLIGATTAWFRFHLMADENARGIFFGPSSTCGICTDTEAWSKVDRNAKAQAIPG
B4: unnamed (protein)
chain: MRVLAMTLALVASTLATPTALAAPPDYGLPGSYPVAYSDVTAVAGGRSVPARVHYPATTSGTNQPVATGRFPVIAFGHGFFQATSKYTSTSTHLASWGFVVVVPTTQGGLSPSHGAFADDLNTGLTWLVAQDGTTGSRFRDHITTTALGVSGHSMGGGAAVLAAARNPKIKAVSTYAAAETNPSAKAAAATLAAPAQFLAGSQDTITPVGDHQRPMFTAKPPARQLRTITGGFHCGFMDSSGLFCDNGSITRAAQLTASKRVMTSWFRHYLSGDTAARDLVWGQPARTDPAVVFEGTE
B5: unnamed (protein)
chain: MQTNPYARGPNPTAASLEASAGPFTVRSFTVSRPSGYGAGTVYYPTNAGGTVGAIAIVPGYTARQSSIKWWGPRLASHGFVVITIDTNSTLDQPESRSSQQMAALRQVASLNGTSSSPIYGKVDTARMGVMGWSMGGGGSLISAANNPSLKAAAPQAPWHSSTNFSSVTVPTLIFACENDSIAPVNSSALPIYDSMSQNAKQFLEIKGGSHSCANSGNSNQALIGKKGVAWMKRFMDNDTRYSTFACENPNSTAVSDFRTANCS
B6: unnamed (protein)
chain: MDGVLWRVRTAALMAALLALAAWALVWASPSVEAQSNPYQRGPNPTRSALTADGPFSVATYTVSRLSVSGFGGGVIYYPTGTSLTFGGIAMSPGYTADASSLAWLGRRLASHGFVVLVINTNSRFDYPDSRASQLSAALNYLRTSSPSAVRARLDANRLAVAGHSMGGGGTLRIAEQNPSLKAAVPLTPWHTDKTFNTSVPVLIVGAEADTVAPVSQHAIPFYQNLPSTTPKVYVELDNASHFAPNSNNAAISVYTISWMKLWVDNDTRYRQFLCNVNDPALSDFRTNNRHCQ
B7: unnamed (protein)
chain: MKTNRRTLMLTGIAMTIGTAGRAAQATPEFKPQPGPLSIKSAAAISFRVEDQAKDLQIRVTYPDGPGPWPAIIFSHGAMSSKDFYNRVADHWATHGYATILPTHLDSESLGYSFKNPLPREKVFFGRIGDMQFILNHLDEIAGKAGIAGKIEKTKLAVAGHSFGGWTSLILAGLPVKMPDGSLKSFADSRIKALVSYNGIGPMDEIPDAAWAKVAIPVFAASGTNDPGATGSGPVHPWRWRIGAYDYAGSKEKYAVSITMGDHYYGGLICREGAGGKPDPEGLSFVNGSSTAFMDAYLKDDKSAKKFLRTADLRPLTNDRAFLERS
B8: unnamed (protein)
chain: MNAPLFKLAALTLGLSLASVVLANNPGGGGGTAPDTGTGFPGVSNFSASGSFATTSGSAGASCTVFRPSTLGANNRKHPIIVWGNGTTASPNTYASLLQHWASHGFVVIAANTSNAGTGQEMLGCVDYLTTQNNRSTGTYAGKLDLNRIGAAGHSQGGGGTIMAGQDYRIKVTAPFQPYTIGLGHNSSSQSNQNGPMFLMTGSIDTIASPTLNALPVYTRANVPVFWGELSGASHFEPVGNAGDFRGPATAWFRYHLMDDASAEDTFYGSNCDLCTDRDWDVRRKGIN
B9: unnamed (protein)
chain: MRARIAALVAVPFLGAGAFAVSSVAAGDPPAVRTVPAAAAAPVDWSKTGPHQVKVDKADAHTIYRPSDLGSGGVKNPVVIWGNGTGATPAAYDGLLRHWASHGFVVAAANTKQANNGNAMRAGLDLVTKWNTTSSSPYYGKVDVSRVASSGHSQGGAGAMNAAVDTRVDAVLPIQPGPLAAPRKFKQPTFYMAGQNDRVVWPSWVRNFYNKSGHLPAVFGVVRGATHVAPAGDGGAFRGPTTAWLSFTLRGDASARAQFAGASCGYCGASSPFSNWLRNTRFTSQNG
B10: unnamed (protein)
chain: MALVTALALVTGVGTAPAFADEIGQAPTAANITGDGSFSTSSSAIFGQSGFGGGTAYYPNTAGKYPVVAFAPGFLSDWNALNWLGPRVASWGFVVVGVNTNTPFDFPDARGDQLLAALNWAVNSAPAAVRDKADGSRRGVSGWSMGGGGTLEALAKDTTGTVKAGVPLAPWHTNKTWSKVTEPVFIIGGQNDSVAAPASHAIPFYNSLGGPKSYLERAGADHFFPTKSNGTVSRAVVSFFKRHVSADTRFTPFLCGFSGLDVSNFRSNSC
B11: unnamed (protein)
chain: MLSKRGILGALAGGAVAVGCLTAPAHAAGFEKGPDPTTASVTADRGSYDIAQVDVPKGSGTGFADGTIYYPKSTADGTFGAVAVIPGFLEPKSAIDWYGPRLASQGFVVMTLDTTSVFDTPDSRGGQLLAALDYLTSKSTVKDRIDPNRLAVVGHSMGGGGTLSAAANRPNLKAAVALAPWHVSAPLTSVKTPTMIFGSDNDFIAPDGTFAKPFYDGISNAPEKAYVRLKNAGHMAYVFPDKRIAEYTLSWLKRYVDDDTRYTQFLCPGPTNESTIAAYKSTCPM
B12: unnamed (protein)
chain: MRIRQALVAFCAAIAMVVAGPSYASALDSPYQRGPDPTEASVKAIAGPFAVDQVKATGHTGFGSGTIFYPKDEKGTFGTIAVSPGFISPEGLVHWYAKTLASHGFVVMAMGTFTVADPPPSRGDQLRAALDYMKTKSPVKDKVDPTRLGLSGHSMGGGGTLDAASKMPDLKAAVPLAPWYLTGGPVIPKVKAPTLVVGANIDFVAPMAIFATPFYKALTSPNKALLTLPGDHMTPFLLANPTLTKFAVSWFKRFLDDDTRYDQFLCPNPASYEGTCPLT

Substrate in the first series: not listed separately
Kind of series: Proxy for plastic degradation [UPLC/UHPLC]. Conditions: pH 9; 30 °C.
B1: the “Proxy for plastic degradation” value turned out to be 17.3 µM.
Take B2: the “Proxy for plastic degradation” value was 15.4 µM.
On the same count and under the same terms, then B3, with 13.9 µM; and B4, with 13 µM; and B7, with 15.7 µM.
In the case of B8, the “Proxy for plastic degradation” value came to 8.31 µM.
The same measure, in the same setting: then B9, with 12.7 µM; and B10, with 65.5 µM.
Same read-out and setting: the figure for B11 is 14.7 µM; for B12 it is 11.2 µM.

Staying with this series, now noted: pH 9; 40 °C.
With B1, the “Proxy for plastic degradation” value is 64.7 µM.
As for B2, the “Proxy for plastic degradation” value stood at 15.5 µM.
On to B3, for which the “Proxy for plastic degradation” value stood at 14.7 µM.
In the case of B4, the “Proxy for plastic degradation” value was 18 µM.
On to B7, for which the “Proxy for plastic degradation” value was determined as 12.8 µM.
On the same count and under the same terms, then B8, with 9.03 µM; and B9, with 12.6 µM; and B10, with 759 µM.
Still for that read-out and setting: then B11, with 14.2 µM; and B12, with 22.8 µM.

The series is the same for the next values; noted with them: pH 9; 50 °C.
Consider B1, for which the “Proxy for plastic degradation” value was determined as 46.9 µM.
In the case of B2, the “Proxy for plastic degradation” value amounted to 15.5 µM.
The same measure, in the same setting: then B3, with 10.6 µM; and B4, with 16.6 µM; and B7, with 17.3 µM.
The same measure, in the same setting: the figure for B8 is 9.57 µM; for B9 it is 15.7 µM; for B10 it is 3600 µM.
Still for that read-out and setting: then B11, with 14.1 µM.
In the case of B12, the “Proxy for plastic degradation” value came out at 44.2 µM.

Staying with this series, now noted: pH 9; 55 °C.
As for B1, the “Proxy for plastic degradation” value came out at 27.4 µM.
For the protein B2, the “Proxy for plastic degradation” value is 16.6 µM.
Turning to B3, the “Proxy for plastic degradation” value is 15.5 µM.
B4: the “Proxy for plastic degradation” value was found to be 16.2 µM.
Same read-out and setting: the figure for B7 is 17.3 µM.
As for B8, the “Proxy for plastic degradation” value is 9.09 µM.
On to B9, for which the “Proxy for plastic degradation” value was determined as 16 µM.
The same measure, in the same setting: then B10, with 596 µM; and B11, with 14.4 µM; and B12, with 26.1 µM.

The same series, now with this note: pH 9; 60 °C.
As to B1, the “Proxy for plastic degradation” value was 17.4 µM.
Turning to B2, the “Proxy for plastic degradation” value turned out to be 16.1 µM.
On the same count and under the same terms, the figure for B3 is 15.3 µM; for B4 it is 16.5 µM.
On the same count and under the same terms, the figure for B7 is 17.2 µM.
The same measure, in the same setting: then B8, with 9.47 µM; and B9, with 16.4 µM.
On to B10, for which the “Proxy for plastic degradation” value stood at 167 µM.
The same measure, in the same setting: the figure for B11 is 15 µM; for B12 it is 19.7 µM.

Substrate in another series: p-NP-C4
Test: not given
To be noted: 50 °C; part of the chain shown.
Turning to B5, the Km was 1570 µM, the kcat amounted to 0.215 s⁻¹ and the kcat/Km was determined as 137 M⁻¹ s⁻¹.

Staying with this series, now noted: pH 8; 65 °C.
As for B6, the Km stood at 1050 µM, the kcat amounted to 0.186 s⁻¹ and the kcat/Km was found to be 177 M⁻¹ s⁻¹.

Substrate in the next series: PET
Briefly: Proxy for plastic degradation [kcat/Km (catalytic efficiency)] (mM⁻¹s⁻¹). To be noted: pH 8.
For B6, the “Proxy for plastic degradation” value was 0.208.

Substrate in another series: PET
Briefly: Proxy for plastic degradation [Released monomer concentration (HPLC/LC-MS) (TPA+MHET)]. Conditions: 30 °C.
For the protein B6, the “Proxy for plastic degradation” value stood at 44.7 µM.

The series is the same for the next values; noted with them: 40 °C.
As to B6, the “Proxy for plastic degradation” value is 115 µM.

The same series, now with this note: 50 °C.
With B6, the “Proxy for plastic degradation” value was found to be 628 µM.

Still in this series, the particulars now being: 55 °C.
On to B6, for which the “Proxy for plastic degradation” value came out at 2030 µM.

The same series, now with this note: 60 °C.
As to B6, the “Proxy for plastic degradation” value amounted to 2450 µM.

The series is the same for the next values; noted with them: 65 °C.
Consider B6, for which the “Proxy for plastic degradation” value was found to be 3150 µM.

Substrate in another series: p-NP-C4
Test: not given
To be noted: 50 °C.
In the case of B10, the Km came out at 1040 µM, the kcat was determined as 0.27 s⁻¹ and the specificity constant (kcat/Km) was 260 M⁻¹ s⁻¹.
